This is an account of results in patent US20220017622A1 (Pfizer, published 2022).

Positions count from the first letter of the chain named. Values joined by “and” are separate entries in the source; they are usually repeats but may differ in a detail not shown here. Equal values may be shown once.

To fix the notation:
B1: B7-H4 antibody 0057 (antibody, human IgG1, kappa, V domains shown)
VH: EVQLLESGGGLVQPGGSLRLSCAASGFTFSSYAMSWVRQAPGKGLEWVSAISGRGGSTYYTDSVKGRFTISRDNSRNTLYLQMNILRAEDTAVYYCARDLQWFGESTLFDYWGQGTLVTVSS
VL: DIQLTQSPSTLSASVGDRVTITCRASQSISAWLAWFQQKPGKAPKLLIYKASSLESGVPSRFSGSGSGTEFTLTISSLQPDDFATYYCQQYNSYSRSFGQGTKLEIKR
notes: also called 34A3
B2: B7-H4 antibody 0051 (antibody, human IgG1, kappa, V domains shown)
VH: EVQLLESGGGLVQPGGSLRLSCAASGFTFSSYAMSWVRQAPGKGLEWVSSISGNGGSTYYADSVKGRFTISRDNSKNTLSLQMNSLRAEDTAVYYCAKVGWRTGDYWGQGTLVTVSS
VL: B1 VL with A31S, F36Y, P40A, S53D, T69I, R96W, S97T, L104V
notes: also called 27C12
B3: B7-H4 antibody 0056 (antibody, human IgG1, kappa, V domains shown)
VH: EVQLLESGGGLVQPGGSLRLSCAASGFTFSTYAMNWVRQAPGKGLAWVSAISGSGGSTYYADSVKGRFTISRDDSKNTLYLQMNSLRAEDTAVYYCAKVDVVARYYGMDVWGQGTTVTVSS
VL: B1 VL with L4M, A31G, F36Y, K50E, N92K, R96W, S97T, L104V
notes: also called 33G4
B4: B7-H4 antibody 0049 (antibody, human IgG1, kappa, V domains shown)
VH: EVQLLESGGGLVQPGGSLRLSCAASGFTFSSYAMSWVRQAPGKGLEWVSAISGSGGSTYYADSVKGRFTISRDNSKNTLFLHMNSLRAEDTAVYYCARDIQWFGESVFDYWGQGTLVTVSS
VL: B1 VL with L4M, A31S, F36Y, S65N, F83L, Q90Y, S97T, L104V
notes: also called 13F4
B5: B7-H4 antibody 0053 (antibody, human IgG1, kappa, V domains shown)
VH: QVQLQQWGAGLLKPSETLSLTCAVYGGPFSGYFWSWIRQPPGKGLEWIGEINHSGNTNYNPSLKSRVTISVDTSKNQFSLKLSSVTAADTAVYYCARAGGDYGFYYYYGMDVWGQGTTVTVSS
VL: DIQLTQSPSTLSASVGDRVTITCRASQSISSWLAWYQQKPGKAPELLVYKASRLESGVPSRFSGSGSGTEFTLTISSLQPDDFATYYCQQYNSYFGGGTKVEIKR
notes: also called 29G6
B6: B7-H4 antibody 0061 (antibody, human IgG1, kappa, V domains shown)
VH: B5 VH with P28S, I51F, N56G, Y59S, I69M, Y94F, M110L
VL: B5 VL
notes: also called 46E10
B7: B7-H4 antibody 0052 (antibody, human IgG1, kappa, V domains shown)
VH: QVQLQQWGAGLLKPSETLSLTCAVYGGSFSGYYWNWIRQPPGKGLEWIGEINHSGSTKYNPSLKSRVTISGDTSKNQFSLKLNSVTAADTAVYYCVRGLYNWNVDSWGQGTLVTVSS
VL: DIQMTQSPSSLSASVGDRVTITCRASQGIRNDLGWYQQKPGKAPKRLIYVASSLQSGVPSRFSGSGSGTEFTLTISSLQPEDFATYYCLQHNSYPYTFGQGTKLEIKR
notes: also called 28D10
B8: B7-H4 antibody 0055 (antibody, human IgG1, kappa, V domains shown)
VH: QVQLQESGPGLVKPSETLSLTCTVSGGSISSSSYYWGWIRQPPGKGLEWIGTIYFSGNTYYNPSLKSRVTISVDTSKSQLSLKLNSVTAADTAVYYCARLRVTMVRGVIIGVFDYWGQGTLVTVSS
VL: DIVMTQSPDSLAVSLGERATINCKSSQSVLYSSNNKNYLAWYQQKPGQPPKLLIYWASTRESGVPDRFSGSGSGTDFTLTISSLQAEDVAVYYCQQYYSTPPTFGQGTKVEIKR
notes: also called 32F3
B9: B7-H4 antibody 0060 (antibody, human IgG1, kappa, V domains shown)
VH: B8 VH with G26T, N58S, S78N, L80F, N85T, Y115F
VL: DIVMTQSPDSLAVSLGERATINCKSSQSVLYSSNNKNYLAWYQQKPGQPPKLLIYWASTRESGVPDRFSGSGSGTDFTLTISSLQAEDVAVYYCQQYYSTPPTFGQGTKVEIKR
notes: also called 42E2
B10: B7-H4 antibody 0048 (antibody, human IgG1, kappa, V domains shown)
VH: EVQLLESGGGLVQPGGSLRLSCAASGFTFSSYAMKWVRQAPGKGLEWVSTTSGSGGTTYYADSVKGRFTISRDNSKNTLYLQMNSLRAEDTAVYYCAKAGWAAAFDYWGQGTLVTVSS
VL: DIQLTQFPSTLSASVGDRITITCRASQSISDWLAWYQQKPGKAPKLLIYKASSLESGVPSRFSGSGSGTEFTLTISSLQPDDFATYYCQQCNSYWTFGQGTKVEIKR
notes: also called 11F12
B11: B7-H4 antibody 0059 (antibody, human IgG1, kappa, V domains shown)
VH: EVQLLESGGGLVQPGGSLRLSCAASGFTFSSYALSWVRQAPGKGLEWVSTINVGGVDTNYAGSVKGRFTISRDNPKNTLCLQMNSLRAEDTAVYHCAKARITMVRGVIIPLFDYWGQGTLVTVAS
VL: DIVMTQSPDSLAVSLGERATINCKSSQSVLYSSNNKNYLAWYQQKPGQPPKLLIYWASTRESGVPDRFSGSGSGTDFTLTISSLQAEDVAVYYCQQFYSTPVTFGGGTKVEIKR
notes: also called 47A1
B12: B7-H4 antibody 1080 (antibody, human IgG1, kappa, V domains shown)
VH: EVQLVESGGGLVQPGGSLRLSCAVSGGSFSGYYWNWIRQPPGKGLEWIGEINHSGSATYNPSLKSRVTISVDTAKNSLYLQMNSLRAEDTAVYYCARGLYNWNVDHWGQGTLVTVSS
VL: B7 VL with V50A, E70D, S93A, Y96R, Q100G, L104V
B13: B7-H4 antibody 0385 (antibody, human IgG1, kappa, V domains shown)
VH: B7 VH with S19P, T57A, K58T, G71V, Q77H, N83S, Y94F, V96A, S106H
VL: B7 VL with V50A, E70D, N92Q, Y96R, Q100G, L104V
B14: B7-H4 antibody 0546 (antibody, human IgG1, kappa, V domains shown)
VH: B12 VH with N52D, S54Q, A57T, T58K, G98E
VL: B7 VL with V50A, E70D, N92S, Y96R, Q100G, L104V
B15: B7-H4 antibody 1083 (antibody, human IgG1, kappa, V domains shown)
VH: B12 VH with V24A, L78F
VL: B7 VL with V50A, E70D, S93A, Y96R, Q100G, L104V
B16: B7-H4 antibody 0380 (antibody, human IgG1, kappa, V domains shown)
VH: B12 VH with I37V, P40A, V67F, L78F, G98E
VL: B7 VL with V50A, Y96R, Q100G, L104V
B17: B7-H4 antibody 0352 (antibody, human IgG1, kappa, V domains shown)
VH: B12 VH with V67F, L78F
VL: B7 VL with V50A, Y96R, Q100G, L104V
B18: B7-H4 antibody 0544 (antibody, human IgG1, kappa, V domains shown)
VH: B12 VH with V24A, N52D, S54Q, A57T, T58K
VL: B7 VL with V50A, E70D, N92S, Y96R, Q100G, L104V
B19: B7-H4 antibody 0350 (antibody, human IgG1, kappa, V domains shown)
VH: B12 VH with N35S, I37V, V67F, L78F
VL: B7 VL with V50A, Y96R, Q100G, L104V
B20: B7-H4 antibody 0934 (antibody, human IgG1, kappa, V domains shown)
VH: B12 VH with I37V, P40A
VL: B7 VL with V50A, E70D, N92S, Y96R, Q100G, L104V
B21: B7-H4 antibody 0540 (antibody, human IgG1, kappa, V domains shown)
VH: B12 VH with N52D, S54Q, A57T, T58K, G98E
VL: B7 VL with V50A, E70D, S93A, Y96R, Q100G, L104V
B22: B7-H4 antibody 0911 (antibody, human IgG1, kappa, V domains shown)
VH: B12 VH
VL: B7 VL with V50A, E70D, N92S, Y96R, Q100G, L104V
B23: B7-H4 antibody 1081 (antibody, human IgG1, kappa, V domains shown)
VH: B12 VH with N52D, S54Q, A57T, T58K, L78F
VL: B7 VL with V50A, E70D, S93A, Y96R, Q100G, L104V
B24: B7-H4 antibody 0376 (antibody, human IgG1, kappa, V domains shown)
VH: B12 VH with I37V, P40A, N60V, P61D, L63V, S65G, V67F, V71R, L78F
VL: B7 VL with V50A, Y96R, Q100G, L104V
B25: B7-H4 antibody 0542 (antibody, human IgG1, kappa, V domains shown)
VH: B12 VH with V24A, N52D, S54Q, A57T, T58K, G98E
VL: B7 VL with V50A, E70D, N92S, Y96R, Q100G, L104V
B26: B7-H4 antibody 0538 (antibody, human IgG1, kappa, V domains shown)
VH: B12 VH with V24A, N52D, S54Q, A57T, T58K
VL: B7 VL with V50A, E70D, S93A, Y96R, Q100G, L104V
B27: B7-H4 antibody 0362 (antibody, human IgG1, kappa, V domains shown)
VH: B12 VH with I37V, P40A, N52D, S54Q, A57T, T58K, V67F, L78F
VL: B7 VL with V50A, Y96R, Q100G, L104V
B28: B7-H4 antibody 1082 (antibody, human IgG1, kappa, V domains shown)
VH: B12 VH with V24A, I37V, P40A
VL: B7 VL with V50A, E70D, S93A, Y96R, Q100G, L104V
B29: B7-H4 antibody 0368 (antibody, human IgG1, kappa, V domains shown)
VH: B12 VH with V24A, I37V, P40A, I48V, G49A, V67F, V71R
VL: B7 VL with V50A, Y96R, Q100G, L104V
B30: B7-H4 antibody 0364 (antibody, human IgG1, kappa, V domains shown)
VH: B12 VH with I37V, P40A, L78F
VL: B7 VL with V50A, Y96R, Q100G, L104V
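Wherever IC50 is given: tested antibody premixed 1:1 with biotinylated parental antibody, 2 h at room temperature on coated ECD, bound biotin detected via streptavidin-HRP, absorbance read at 450 nm.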

The first assay has as its target T1, human B7-H4 extracellular domain (human, UniProt Q7Z7D3 29-258).
T1 construct: For SPR it says only human B7-H4 ECD; also called Hu B7-H4 ECD; huB7-H4 ECD
T1 sequence: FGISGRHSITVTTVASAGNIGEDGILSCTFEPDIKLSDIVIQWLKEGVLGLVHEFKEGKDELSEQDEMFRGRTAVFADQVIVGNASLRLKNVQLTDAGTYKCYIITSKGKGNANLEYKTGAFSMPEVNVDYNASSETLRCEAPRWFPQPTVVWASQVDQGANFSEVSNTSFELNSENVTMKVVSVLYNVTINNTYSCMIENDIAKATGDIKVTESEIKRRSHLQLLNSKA
In words: SPR Biacore 8K 25 C; mAb captured on anti-human Fc, huB7-H4 ECD analyte, 1:1 fit.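 Further: antibodies tested as IgG1, running buffer HBS-EP+ at pH 7.4, rate constants and affinity from a 1:1 Langmuir model fit.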
In the case of B1, the equilibrium dissociation constant (Kd) came to 7.92 nM, the dissociation rate constant (koff) was 0.000508 s⁻¹ and the kon stood at 64100 M⁻¹ s⁻¹.

B2 showed a Kd of 0.57 nM, a koff of 0.000464 s⁻¹ and an on-rate (kon) of 814000 M⁻¹ s⁻¹.

Consider B3, for which the Kd was determined as 0.62 nM, the koff came to 0.000353 s⁻¹ and the on-rate constant (kon) is 574000 M⁻¹ s⁻¹.

On to B4, for which the Kd is 1.85 nM, the off-rate constant (koff) is 0.000414 s⁻¹ and the on-rate (kon) came out at 225000 M⁻¹ s⁻¹.

As to B5, binding was characterised by a dissociation constant (Kd) of 0.74 nM, the off-rate (koff) is 0.000321 s⁻¹ and the on-rate constant (kon) came to 434000 M⁻¹ s⁻¹.

In the case of B6, binding was put at a Kd of 0.84 nM, the dissociation rate constant (koff) was 0.000572 s⁻¹ and the kon amounted to 678000 M⁻¹ s⁻¹.

As for B7, the dissociation constant Kd was found to be 7.83 nM, the koff is 0.0011 s⁻¹ and the on-rate (kon) amounted to 140000 M⁻¹ s⁻¹.

For the molecule B8, the dissociation constant Kd was found to be 1.9 nM, the koff is 0.000725 s⁻¹ and the kon amounted to 382000 M⁻¹ s⁻¹.

With B9, the Kd came out at 1.35 nM, the koff was determined as 0.00075 s⁻¹ and the kon was found to be 558000 M⁻¹ s⁻¹.

Consider B10, for which the Kd was 0.83 nM, the koff came out at 0.000619 s⁻¹ and the on-rate constant (kon) is 745000 M⁻¹ s⁻¹.

For the molecule B11, the dissociation constant Kd was 0.68 nM, the koff turned out to be 0.000389 s⁻¹ and the association rate constant (kon) was found to be 568000 M⁻¹ s⁻¹.

A further assay deals with T1, human B7-H4 extracellular domain. In words: competition ELISA on coated huB7-H4 ECD; competitor biotinylated 0052 (by series, not given).
Molecule B12 yielded an IC50 of 1.4 nM. This counts as single-digit nanomolar.

For the molecule B13, the IC50 amounted to 7.87 nM.

In turn, B14 gave a 50% inhibitory concentration (IC50) of 42.3 nM.

Turning to B15, the IC50 was 2.1 nM.

Consider B16, for which the 50% inhibitory concentration (IC50) is 13.6 nM and 17.8 nM.

As to B17, the half-inhibitory concentration (IC50) was 15.8 nM and 12.9 nM.

For the molecule B18, the IC50 was found to be 35.5 nM.

With B19, the IC50 worked out at 17.6 nM.

B20 gave an IC50 of 3.6 nM. This IC50 is about 4.9-fold lower than that of the molecule before.

For the molecule B21, the concentration for half-maximal inhibition (IC50) worked out at 30.1 nM.

Molecule B22 displayed a concentration for half-maximal inhibition (IC50) of 2.5 nM.

In turn, B23 had a half-inhibitory concentration (IC50) of 3.5 nM. This IC50 and that of the molecule before are within 1.5-fold of each other.

Molecule B24 displayed an IC50 of 12.4 nM. Compared with the last molecule, the IC50 is about 3.5-fold higher.

As to B25, the half-maximal inhibitory concentration (IC50) came to 33.8 nM.

Regarding B26, the IC50 was determined as 21.9 nM.

Regarding B27, the 50% inhibitory concentration (IC50) is 13.5 nM and 17.1 nM.

In turn, B28 registered an IC50 of 2 nM. This counts as single-digit nanomolar.

Turning to B29, the half-maximal inhibitory concentration (IC50) is 8.49 nM and 8.3 nM.

Turning to B30, the 50% inhibitory concentration (IC50) was 9.13 nM and 10.8 nM.
